Experimental data from paper PMC10362042 (Nature Communications, 2023).
Where “and” joins values, the source holds several entries; their conditions need not be identical. Equal entries are not always repeated.

Experiments:
Assay in all cases: SPR
Settings in all cases: both partners purified
[1] = biological target: T1, SARS-CoV-2 Omicron BA.1 RBD (residues 319-541) (SARS-CoV-2, UniProt P0DTC2 319-541)
[2] = biological target: T2, SARS-CoV-2 Omicron BA.2 RBD (residues 319-541) (SARS-CoV-2, UniProt P0DTC2 319-541)
[3] = biological target: T3, SARS-CoV-2 Omicron BA.4/5 RBD (residues 319-541) (SARS-CoV-2, UniProt P0DTC2 319-541)
[4] = biological target: T1, SARS-CoV-2 Omicron BA.1 RBD (residues …); remark: listed apart in the source
[5] = biological target: T2, SARS-CoV-2 Omicron BA.2 RBD (residues …); remark: listed apart in the source
[6] = biological target: T3, SARS-CoV-2 Omicron BA.4/5 RBD (residues …); remark: listed apart in the source
[7] = biological target: SARS-CoV-2 Omicron BA.1 RBD (residues 319-541) (SARS-CoV-2, UniProt P0DTC2 319-541); remark: listed apart in the source
[8] = biological target: SARS-CoV-2 Omicron BA.2 RBD (residues 319-541) (SARS-CoV-2, UniProt P0DTC2 319-541); remark: listed apart in the source
[9] = biological target: SARS-CoV-2 Omicron BA.4/5 RBD (residues 319-541) (SARS-CoV-2, UniProt P0DTC2 319-541); remark: listed apart in the source

B1: Horse ACE2 (receptor)
chain: QSTTEDLAKTFLEKFNSEAEELSHQSSLASWSYNTNITDENVQKMNEAGARWSAFYEEQCKLAKTYPLEEIQNLTVKRQLQALQQSGSSVLSADKSKRLNEILNTMSTIYSTGKVCNPSNPQECLLLEPGLDAIMENSKDYNQRLWAWEGWRSEVGKQLRPLYEEYVVLKNEMARANNYEDYGDYWRGDYEAEGPSGYDYSRDQLIEDVERTFAEIKPLYEHLHAYVRAKLMDTYPSHINPTGCLPAHLLGDMWGRFWTNLYSLTVPFGQKPNIDVTDAMVDQSWDAKRIFEEAEKFFVSVGLPNMTQGFWENSMLTEPGDGRKVVCHPTAWDLGKGDFRIKMCTKVTMDDFLTAHHEMGHIQYDMAYAVQPYLLRNGANEGFHEAVGEIMSLSAATPNHLKAIGLLPPDFYEDSETEINFLLKQALTIVGTLPFTYMLEKWRWMVFKGEIPKEEWMKKWWEMKREIVGVVEPVPHDETYCDPAALFHVANDYSFIRYYTRTIYQFQFQEALCQTAKHEGPLHKCDISNSTEAGQKLLQMLSLGKSEPWTLALERIVGVKNMDVRPLLNYFEPLFTWLKDQNKNSFVGWSTNWSPYAD
In the case of B1, the Kd [1] is reported as 7440 nM and 7790 nM and 8720 nM and 7980 nM, the koff [1] is reported as 0.23 s⁻¹ and 0.25 s⁻¹ and 0.26 s⁻¹ and the kon [1] is reported as 30000 M⁻¹ s⁻¹ and 32000 M⁻¹ s⁻¹. The Kd [2] was 38200 nM and 38800 nM and 44600 nM and 40500 nM, the koff [2] was 0.38 s⁻¹ and 0.37 s⁻¹ and the kon [2] was 9800 M⁻¹ s⁻¹ and 9600 M⁻¹ s⁻¹ and 8400 M⁻¹ s⁻¹. For the same binder, the Kd [3] was 455 nM and 445 nM and 459 nM and 453 nM, the koff [3] was 0.02 s⁻¹ and 0.021 s⁻¹ and the kon [3] was 45000 M⁻¹ s⁻¹ and 46000 M⁻¹ s⁻¹.

B2: Golden Hamster ACE2 (residues 1-615) (receptor)
chain: QSIIEEQAKTFLDKFNQEAEDLSYQSALASWNYNTNITEENAQKMNEAAAKWSAFYEEQSKLAKNYSLQEVQNLTIKRQLQALQQSGSSALSADKNKQLNTILNTMSTIYSTGKVCNPKNPQECLLLEPGLDDIMATSTDYNERLWAWEGWRAEVGKQLRPLYEEYVVLKNEMARANNYEDYGDYWRGDYEAEGADGYNYNGNQLIEDVERTFKEIKPLYEQLHAYVRTKLMNTYPSYISPTGCLPAHLLGDMWGRFWTNLYPLTVPFGQKPNIDVTDAMVNQGWNAERIFKEAEKFFVSVGLPYMTQGFWENSMLTDPGDDRKVVCHPTAWDLGKGDFRIKMCTKVTMDNFLTAHHEMGHIQYDMAYATQPFLLRNGANEGFHEAVGEIMSLSAATPEHLKSIGLLPSDFQEDNETEINFLLKQALTIVGTLPFTYMLEKWRWMVFKGDIPKEQWMEKWWEMKREIVGVVEPLPHDETYCDPAALFHVSNDYSFIRYYTRTIYQFQFQEALCQAAKHDGPLHKCDISNSTEAGQKLLNMLRLGKSEPWTLALENVVGARNMDVRPLLNYFEPLSVWLKEQNKNSFVGWNTDWSPYAD
With B2 the Kd [4] was 277 nM and 230 nM and 296 nM and 268 nM, the Kd [5] was 174 nM and 106 nM and 167 nM and 149 nM and the koff [5] was 0.86 s⁻¹ and 1 s⁻¹ and 0.75 s⁻¹. The kon [5] was 2.5e+06 M⁻¹ s⁻¹ and 3e+06 M⁻¹ s⁻¹ and 2e+06 M⁻¹ s⁻¹, the Kd [6] was 118 nM and 117 nM and 166 nM and 133 nM and the kon [6] was 26000 M⁻¹ s⁻¹ and 13000 M⁻¹ s⁻¹ and 16000 M⁻¹ s⁻¹.

B3: Cat ACE2 (receptor)
chain: QSTTEELAKTFLEKFNHEAEELSYQSSLASWNYNTNITDENVQKMNEAGAKWSAFYEEQSKLAKTYPLAEIHNTTVKRQLQALQQSGSSVLSADKSQRLNTILNAMSTIYSTGKACNPNNPQECLLLEPGLDDIMENSKDYNERLWAWEGWRAEVGKQLRPLYEEYVALKNEMARANNYEDYGDYWRGDYEEEWTDGYNYSRSQLIKDVEHTFTQIKPLYQHLHAYVRAKLMDTYPSRISPTGCLPAHLLGDMWGRFWTNLYPLTVPFGQKPNIDVTDAMVNQSWDARRIFKEAEKFFVSVGLPNMTQGFWENSMLTEPGDSRKVVCHPTAWDLGKGDFRIKMCTKVTMDDFLTAHHEMGHIQYDMAYAVQPFLLRNGANEGFHEAVGEIMSLSAATPNHLKTIGLLSPGFSEDSETEINFLLKQALTIVGTLPFTYMLEKWRWMVFKGEIPKEQWMQKWWEMKREIVGVVEPVPHDETYCDPASLFHVANDYSFIRYYTRTIYQFQFQEALCRIAKHEGPLHKCDISNSSEAGKKLLQMLTLGKSKPWTLALEHVVGEKKMNVTPLLKYFEPLFTWLKEQNRNSFVGWNTDWRPYADQSIKVRISLKSALGDEAYEWNDNEMYLFRSSVAYAMREYFSKVKNQTIPFVEDNVWVSNLKPRISFNFFVTASKNVSDVIPRSEVEEAIRMSRSRINDAFRLDDNSLEFLGIQPTLSPPYQPPVT
For B3, the Kd [7] was 60.8 nM and 78.5 nM and 65.2 nM and 68.2 nM, the kon [7] was 2.8e+06 M⁻¹ s⁻¹ and 4.2e+06 M⁻¹ s⁻¹ and 2e+06 M⁻¹ s⁻¹ and the Kd [8] was 133 nM and 128 nM and 158 nM and 140 nM. For the same binder, the koff [8] was 0.014 s⁻¹ and 0.036 s⁻¹ and 0.029 s⁻¹, the kon [8] was 180000 M⁻¹ s⁻¹ and 200000 M⁻¹ s⁻¹ and 100000 M⁻¹ s⁻¹ and the Kd [9] was 149 nM (2×) and 166 nM and 155 nM. The koff [9] was 0.069 s⁻¹ and 0.071 s⁻¹ and 0.079 s⁻¹ and the kon [9] was 470000 M⁻¹ s⁻¹ and 570000 M⁻¹ s⁻¹ and 380000 M⁻¹ s⁻¹.
